Starred links: 1 amine or outer side, 2 acyl side, 3 side chain; linkers in the order of their positions; H or OH if unused. Non-standard residues stand in square brackets, D forms with d. Residues, ends and D or L forms follow the SMILES beside them. Groups on a side chain read outwards from the residue. No end group written: not given here. *: point of attachment. (CH2)18‑OH = polymethylene chain of 18 CH2 units ending in OH (m = 18), OCCCCCCCCCCCCCCCCCC*; C18 diacid = O=C(O)CCCCCCCCCCCCCCCCC(=O)*; γGlu = O=C(O)[C@H](CCC(=O)[*:2])N[*:1]; Dap = NC[C@H](N)C(=O)O; AEEA = NCCOCCOCC(=O)O; Aib = CC(C)(N)C(=O)O
B1: APi3710 (peptide)
peptide: HXEGTFTSDVSSXLEGQAAKEFIAWLVRGRG
modifications: GLP-1 numbering (first residue is Xaa7): Aib-ψ[CH2NH] at Xaa8 (reduced peptide bond between Aib and the next residue); Aib at Xaa19; ε-amino group of Lys26 substituted with AEEA-AEEA-γ-Glu-(CH2)m-OH, m is 18
B2: APi3711 (peptide)
peptide: B1 peptide
modifications: GLP-1 numbering (first residue is Xaa7): Aib at Xaa8 and Xaa19; ε-amino group of Lys26 substituted with AEEA-AEEA-γ-Glu-(CH2)m-OH, m is 18

Experiments:
[1] = target: human GLP-1R (constitutively expressed on recombinant HEK293 CRE-luciferase reporter cells) (human) (UniProt P43220); test: cell-based or functional assay
GLP-1R = target: T1, GLP-1R (Homo sapiens, UniProt P43220); test: Cell-Based Tag-Lite GLP-1R Receptor Binding FRET Assay
T1 construct: purchased

[2] = target: GLP-1R on Tag-Lite Glucagon GLP-1 labeled cells; test: Tag-Lite GLP-1R binding FRET competition assay on cells, with 2% HSA; competitor: red agonist
[3] = target: GLP-1R on Tag-Lite Glucagon GLP-1 labeled cells; test: Tag-Lite GLP-1R binding FRET competition assay on cells, absence of HSA; competitor: red agonist
[4] = target: human GLP-1R (constitutively expressed on recombinant HEK293 CRE-luciferase reporter cells) (human, UniProt P43220 24-463); test: cell-based or functional assay

Chain of GLP-1R on Tag-Lite Glucagon GLP-1 labeled cells (P43220 24-463): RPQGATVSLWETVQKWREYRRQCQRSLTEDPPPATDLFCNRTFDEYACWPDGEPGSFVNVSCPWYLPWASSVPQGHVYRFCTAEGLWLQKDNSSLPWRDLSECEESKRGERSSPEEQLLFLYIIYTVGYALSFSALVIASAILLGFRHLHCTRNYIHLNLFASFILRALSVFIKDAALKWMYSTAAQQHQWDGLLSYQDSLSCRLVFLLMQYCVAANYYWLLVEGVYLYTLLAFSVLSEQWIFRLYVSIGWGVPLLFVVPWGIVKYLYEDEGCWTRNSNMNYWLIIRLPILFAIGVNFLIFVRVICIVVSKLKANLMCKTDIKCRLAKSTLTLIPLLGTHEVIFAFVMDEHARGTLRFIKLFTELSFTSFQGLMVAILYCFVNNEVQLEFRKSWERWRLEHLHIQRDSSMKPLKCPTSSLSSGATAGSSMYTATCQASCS
Chain of human GLP-1R (constitutively expressed on recombinant HEK293 CRE-luciferase reporter cells) (human) (P43220 24-463): as above
T1 sequence (P43220 24-463): as above

Molecule | biological IC50, CRE-luciferase reporter assay [1] | IC50 (GLP-1R; absence of HSA) | IC50 (GLP-1R; with 2% HSA) | IC50 [2] | IC50 [3] | biological IC50, CRE-luciferase reporter assay [4]
liraglutide (peptide) | 30 pM | – | – | – | – | –
CC[C@H](C)[C@H](NC(=O)[C@H](Cc1ccccc1)NC(=O)[C@H](CCC(=O)O)NC(=O)[C@H](CCCCNC(=O)COCCOCCNC(=O)COCCOCCNC(=O)CC[C@H](NC(=O)CCCCCCCCCCCCCCCCC(=O)O)C(=O)O)NC(=O)[C@H](C)NC(=O)[C@H](C)NC(=O)[C@H](CCC(N)=O)NC(=O)CNC(=O)[C@H](CCC(=O)O)NC(=O)C(C)(C)NC(=O)[C@H](Cc1ccc(O)cc1)NC(=O)[C@H](CO)NC(=O)[C@H](CO)NC(=O)[C@@H](NC(=O)[C@H](CC(=O)O)NC(=O)[C@H](CO)NC(=O)[C@@H](NC(=O)[C@H](Cc1ccccc1)NC(=O)[C@@H](NC(=O)CNC(=O)[C@H](CCC(=O)O)NC(=O)C(C)(C)NC(=O)[C@@H](N)Cc1c[nH]cn1)[C@@H](C)O)[C@@H](C)O)C(C)C)C(=O)N[C@@H](C)C(=O)N[C@@H](Cc1c[nH]c2ccccc12)C(=O)N[C@@H](CC(C)C)C(=O)N[C@H](C(=O)NCC(=O)NCC(=O)N1CCC[C@H]1C(=O)N[C@@H](CO)C(=O)N[C@@H](CO)C(=O)NCC(=O)N[C@@H](C)C(=O)N1CCC[C@H]1C(=O)N1CCC[C@H]1C(=O)N1CCC[C@H]1C(=O)N[C@@H](CO)C(N)=O)C(C)C [APi3713] (H-H[Aib]EGTFTSDVSSY[Aib]EGQAAK([AEEA-AEEA-γGlu-C18 diacid])EFIAWLVGGPSSGAPPPS-NH2; N-terminus assumed) | – | 1.59 µM | 95.9 µM | – | – | –
semaglutide (peptide) | 0.4 nM | – | – | – | – | –
H[Aib]EGTFTSDVSS[Aib]LEGQAAK([AEEA-AEEA-γGlu-(CH2)18‑OH])EFIAWLVRG[Dap]G [APi3712] | – | – | – | 179 µM | 1.7 µM | ~0.66 nM
B1 | – | – | – | 809 µM | 4.08 µM | –
B2 | – | – | – | 77.8 µM | 0.898 µM | ~0.66 nM
Y[Aib]EGTFTSDVSS[Aib]LEGQAAK([AEEA-AEEA-γGlu-(CH2)18‑OH])EFIAWLVRGRG [APi3709] | – | – | – | 129 µM | 2.48 µM | ~5.4 nM
H[Aib]EGTFTSDVSSY[Aib]EGQAAK([AEEA-AEEA-γGlu-(CH2)18‑OH])EFIAWLVGGPSSGAPPPS-NH2 [APi3713] | – | – | – | 95.9 µM | 1.59 µM | ~0.57 nM
